Results taken from US20080261906.
Where a chain is given by its changes, count along the chain named. Numbers in names are those of the source.

B1: TBC1D20 with a 6xHIS N-terminal tag (bacterially expressed, pDEST-17) (protein)
chain: MALRSAQGDGPTSGHWDGGAEKADFNAKRKKKVAEIHQALNSDPTDVAALRRMAISEGGLLTDEIRRKVWPKLLNVNANDPPPISGKNLRQMSKDYQQVLLDVRRSLRRFPPGMPEEQREGLQEELIDIILLILERNPQLHYYQGYHDIVVTFLLVVGERLATSLVEKLSTHHLRDFMDPTMDNTKHILNYLMPIIDQVNPELHDFMQSAEVGTIFALSWLITWFGHVLSDFRHVVRLYDFFLACHPLMPIYFAAVIVLYREQEVLDCDCDMASVHHLLSQIPQDLPYETLISRAGDLFVQFPPSELAREAAAQQQAERTAASTFKDFELASAQQRPDMVLRQRFRGLLRPEDRTKDVLTKPRTNRFVKLAVMGLTVALGAAALAVVKSALEWAPKFQLQLFP
B2: mutant TBC1D20 (R66A, R105A), 6xHIS N-terminal tag, bacterially expressed (protein)
chain: B1 chain with R66A, R105A

Assays:
[1] = target: Rab1 GTPase (GTP-loaded, purified)
[2] = target: other Rabs and Arfs of the panel (27 mammalian Rabs and several different ARFs were tested)

Protein | catalytic efficiency (kcat/Km) of GAP-accelerated GTP hydrolysis [1] | catalytic efficiency relative to the intrinsic rate constant for GTP hydrolysis [2] | kinetics of Rab1 GTP hydrolysis (GAP assay) [1]
B1 | Activation of Rab1GTP hydrolysis by TBC1D20 has an apparent catalytic efficiency (kcat/Km) of 360 M^-1s^-1 | Note that only Rab1 displays significant activation by TBC1D20 | 
B2 |  |  | the GTPase activating activity of TBC1D20 on Rab1 was abolished when these conserved arginine residues were mutated to alanine
